Assay results reported in the Human Domainome abundance scans (Beltran et al. 2025).
± gives the uncertainty stated by the source.

B1: Histone H1t, residues 44 to 112; numbered along this chain, P22492 (parent)
chain: VSKLITEALSVSQERVGMSLVALKKALAAAGYDVEKNNSRIKLSLKSLVNKGILVQTRGTGASGSFKLS
B2: Chromodomain-helicase-DNA-binding protein 7, residues 2564 to 2605; numbered along this chain, Q9P2D1 (parent)
chain: DPDTRIPVINLEDGTRLVGEDAPKNKDLVEWLKLHPTYTVDM

Variants of: B1
Assay: abundance fitness (aPCA) (normalised: wild type 0, dead -1); higher = more abundant; growth selection in yeast, the domain comes from the species named
Details: Homo sapiens

Abundance fitness: each site, then its substitutions
T57: Q -0.013 ± 0.032 | H -0.001 ± 0.041 | A 0.024 ± 0.044 | E 0.117 ± 0.084 | N -0.058 ± 0.057 | K -0.011 ± 0.045 | V -0.052 ± 0.044 | S -0.039 ± 0.033 | F -0.14 ± 0.04 | R -0.036 ± 0.032 | G -0.102 ± 0.063 | L -0.026 ± 0.026 | C -0.019 ± 0.047 | P -0.061 ± 0.03 | I -0.147 ± 0.049 | Y -0.133 ± 0.059 | W -0.252 ± 0.049 | M -0.048 ± 0.034
A62: P -0.013 ± 0.026 | Q 0.021 ± 0.025 | R -0.072 ± 0.028 | N 0.073 ± 0.045 | T -0.006 ± 0.026 | D 0.008 ± 0.11 | E 0.133 ± 0.037 | H -0.054 ± 0.042 | G 0.104 ± 0.03 | K 0.054 ± 0.026
V49: W -0.495 ± 0.34 | R -0.262 ± 0.2 | N -0.54 ± 0.052 | Y -0.135 ± 0.049 | P -0.434 ± 0.12 | Q -0.323 ± 0.079 | S -0.423 ± 0.074 | M 0.062 ± 0.044
L54: N -0.249 ± 0.095 | A -0.3 ± 0.25 | T -0.246 ± 0.1 | V 0.158 ± 0.14 | K -0.087 ± 0.14 | P -0.083 ± 0.08 | I 0.197 ± 0.094 | S -0.047 ± 0.11 | Q 0.092 ± 0.16 | Y -0.311 ± 0.071 | R 0.168 ± 0.25 | M 0.062 ± 0.16 | H -0.325 ± 0.12 | F -0.036 ± 0.049
G52: K -0.123 ± 0.066 | M -0.199 ± 0.052 | H -0.283 ± 0.05 | T -0.15 ± 0.036 | R -0.434 ± 0.099 | I -0.352 ± 0.054 | C -0.01 ± 0.13 | S -0.129 ± 0.033 | Q -0.3 ± 0.048 | N -0.201 ± 0.079 | W -0.457 ± 0.2 | Y -0.425 ± 0.067 | P -0.39 ± 0.032 | L -0.212 ± 0.03 | F -0.184 ± 0.045 | D -0.08 ± 0.45
N50: E 0.027 ± 0.07 | A -0.037 ± 0.036 | H -0.24 ± 0.11 | Q 0.066 ± 0.068 | K -0.108 ± 0.12 | D -0.105 ± 0.12 | L -0.312 ± 0.043 | W -0.827 ± 0.077 | P -0.076 ± 0.036 | F -1.1 ± 0.3 | M -0.394 ± 0.096 | T 0.018 ± 0.05 | V -0.388 ± 0.046 | R -0.082 ± 0.038 | I -0.398 ± 0.29 | G -0.099 ± 0.04 | Y -0.092 ± 0.26 | C -0.311 ± 0.096 | S 0.092 ± 0.041
R58: H -0.041 ± 0.065 | M -0.077 ± 0.048 | I -0.09 ± 0.08 | Y -0.246 ± 0.076 | Q 0.036 ± 0.038 | K 0.155 ± 0.048 | L -0.073 ± 0.031 | S 0.103 ± 0.035 | D 0.022 ± 0.052 | G 0.205 ± 0.03 | C -0.121 ± 0.057 | F -0.115 ± 0.068 | N 0.227 ± 0.074 | W -0.151 ± 0.042 | V -0.089 ± 0.034 | P -0.02 ± 0.034 | A 0.078 ± 0.031 | E 0.028 ± 0.04
T60: A 0.074 ± 0.042 | E -0.012 ± 0.074 | G -0.033 ± 0.044 | F -0.236 ± 0.056 | N -0.036 ± 0.051 | L -0.102 ± 0.031 | Y -0.218 ± 0.047 | V -0.038 ± 0.055 | K 0.013 ± 0.043 | M 0.062 ± 0.04 | P 0.025 ± 0.029 | C -0.042 ± 0.082 | R -0.126 ± 0.045 | H -0.076 ± 0.05 | D 0.133 ± 0.078 | I -0.115 ± 0.059 | W -0.123 ± 0.085 | Q -0.02 ± 0.037
F66: T -0.129 ± 0.035 | V -0.078 ± 0.041 | R -0.084 ± 0.04 | N -0.119 ± 0.079 | H -0.289 ± 0.069 | I -0.246 ± 0.065 | M -0.173 ± 0.039 | G -0.127 ± 0.064 | S -0.108 ± 0.033 | E -0.03 ± 0.063 | D 0.053 ± 0.12 | W -0.064 ± 0.046 | K -0.042 ± 0.044 | Y -0.046 ± 0.063 | L -0.097 ± 0.028 | P -0.112 ± 0.033 | A 0.008 ± 0.041 | Q -0.072 ± 0.043
V55: A -0.106 ± 0.064 | G 0.056 ± 0.069 | N -0.102 ± 0.079 | D -0.291 ± 0.11 | M 0.002 ± 0.035 | S 0.071 ± 0.038 | H -0.08 ± 0.1 | T 0.062 ± 0.053 | L -0.056 ± 0.028 | Y -0.15 ± 0.059 | F -0.114 ± 0.036 | I -0.079 ± 0.049 | P -0.163 ± 0.062 | Q -0.127 ± 0.056 | C -0.077 ± 0.1 | W -0.297 ± 0.063 | E 0.027 ± 0.096
K51: D -0.383 ± 0.13 | A -0.164 ± 0.056 | W -0.557 ± 0.13 | Q -0.065 ± 0.041 | E 0.016 ± 0.078 | T -0.212 ± 0.051 | H -0.289 ± 0.14 | N -0.081 ± 0.11 | V -0.481 ± 0.042 | M -0.258 ± 0.053 | Y -1.1 ± 0.34 | F -0.557 ± 0.091 | G -0.322 ± 0.097 | L -0.281 ± 0.031 | P -0.323 ± 0.036 | S -0.161 ± 0.05 | R 0.132 ± 0.062
Q56: E 0.127 ± 0.045 | K 0.083 ± 0.029 | A 0.212 ± 0.037 | R -0.031 ± 0.034 | P -0.026 ± 0.03 | G 0.005 ± 0.053 | T 0.047 ± 0.028
G64: P 0.168 ± 0.03 | M 0.165 ± 0.043 | N -0.373 ± 0.29 | Y -0.051 ± 0.081 | S 0.046 ± 0.03 | C 0.275 ± 0.063 | F -0.067 ± 0.057 | E 0.054 ± 0.14 | Q 0.085 ± 0.055 | R -0.026 ± 0.039 | H -0.209 ± 0.088 | T 0.11 ± 0.04 | W -0.097 ± 0.039 | K 0.031 ± 0.069 | L 0.05 ± 0.031 | A 0.196 ± 0.051 | V 0.154 ± 0.054 | D -0.013 ± 0.21 | I 0.103 ± 0.12
S65: T 0.062 ± 0.03 | E 0.175 ± 0.053 | A 0.031 ± 0.046 | K -0.049 ± 0.029 | F -0.146 ± 0.17 | Q 0.039 ± 0.031 | N 0.008 ± 0.073 | R -0.285 ± 0.03 | G -0.003 ± 0.039 | H -0.084 ± 0.08
I53: C -0.153 ± 0.063 | L -0.067 ± 0.029 | P -0.202 ± 0.041 | S -0.081 ± 0.038 | V -0.025 ± 0.045 | E -0.002 ± 0.053 | T -0.082 ± 0.058 | F -0.031 ± 0.042 | M -0.054 ± 0.048 | G -0.363 ± 0.13 | A -0.118 ± 0.058 | Y -0.184 ± 0.056 | R -0.099 ± 0.068 | Q 0.033 ± 0.046 | W -0.062 ± 0.075 | H -0.095 ± 0.058
S69: I -0.156 ± 0.096 | A 0.044 ± 0.049 | C -0.246 ± 0.054 | F -0.058 ± 0.075 | T -0.029 ± 0.044 | D -0.192 ± 0.13 | M -0.186 ± 0.058 | H -0.465 ± 0.21 | Q -0.102 ± 0.091 | E 0.119 ± 0.097 | W 0.173 ± 0.05 | N -0.055 ± 0.048 | P -0.115 ± 0.039 | G -0.218 ± 0.087 | L -0.128 ± 0.035 | R -0.151 ± 0.041 | V -0.093 ± 0.056 | K -0.012 ± 0.095 | Y 0.171 ± 0.08
L68: K -0.064 ± 0.058 | G -0.049 ± 0.037 | R -0.138 ± 0.039 | F -0.1 ± 0.03 | A -0.176 ± 0.044 | H -0.369 ± 0.071 | N -0.149 ± 0.069 | W -0.121 ± 0.041 | S -0.115 ± 0.039 | Y -0.185 ± 0.042 | T -0.067 ± 0.061 | Q -0.327 ± 0.069 | I -0.223 ± 0.045 | D -0.147 ± 0.067 | E -0.099 ± 0.068 | C -0.202 ± 0.057 | M -0.082 ± 0.037
G61: F -0.16 ± 0.085 | E -0.032 ± 0.064 | K 0.023 ± 0.052 | Y -0.218 ± 0.078 | A -0.103 ± 0.037 | P -0.144 ± 0.036 | D 0.082 ± 0.12 | C -0.018 ± 0.054 | T -0.044 ± 0.039 | V -0.185 ± 0.042 | I -0.171 ± 0.077 | S -0.07 ± 0.037 | L -0.182 ± 0.035 | N 0.055 ± 0.092 | Q -0.081 ± 0.043 | W -0.176 ± 0.042 | M -0.213 ± 0.048 | R -0.188 ± 0.031 | H -0.006 ± 0.063
K67: F 0.06 ± 0.059 | Q -0.092 ± 0.051 | M -0.066 ± 0.041 | A -0.028 ± 0.037 | I -0.192 ± 0.06 | W -0.246 ± 0.051 | V -0.109 ± 0.038 | S 0.024 ± 0.038 | N -0.091 ± 0.045 | R -0.035 ± 0.039 | T -0.193 ± 0.04 | P -0.202 ± 0.054 | H -0.148 ± 0.081 | L -0.158 ± 0.037 | D -0.174 ± 0.05 | Y -0.181 ± 0.061 | C -0.096 ± 0.061
S63: C -0.54 ± 0.21 | E 0.152 ± 0.063 | F -0.028 ± 0.051 | T 0.004 ± 0.039 | H 0.025 ± 0.058 | N -0.113 ± 0.083 | V -0.006 ± 0.046 | K -0.019 ± 0.043 | Q 0.057 ± 0.04 | L 0.006 ± 0.028 | P -0.027 ± 0.033 | G 0.085 ± 0.044 | R -0.133 ± 0.044 | D 0.029 ± 0.08 | I -0.045 ± 0.057 | Y -0.204 ± 0.06
G59: N -0.186 ± 0.091 | K 0.001 ± 0.046 | L -0.049 ± 0.028 | C -0.015 ± 0.068 | I 0.119 ± 0.07 | F -0.074 ± 0.058 | D 0.025 ± 0.078 | H -0.13 ± 0.049 | P -0.138 ± 0.03 | R -0.146 ± 0.033 | Q -0.079 ± 0.036 | E -0.086 ± 0.053 | M -0.152 ± 0.042 | Y -0.222 ± 0.064 | A -0.148 ± 0.04 | S -0.113 ± 0.033 | V -0.09 ± 0.04

Variants of: B2
Assay: as above
Details: Homo sapiens

Abundance fitness, by site and new letter:
D1: E -1.19 ± 0.23 | A -0.69 ± 0.093 | C -0.283 ± 0.1 | F 0.073 ± 0.29
